The target in the test is T1, hiR2-FL-G563D-T7 (human, UniProt Q6PJF5 1-856).
T1 sequence: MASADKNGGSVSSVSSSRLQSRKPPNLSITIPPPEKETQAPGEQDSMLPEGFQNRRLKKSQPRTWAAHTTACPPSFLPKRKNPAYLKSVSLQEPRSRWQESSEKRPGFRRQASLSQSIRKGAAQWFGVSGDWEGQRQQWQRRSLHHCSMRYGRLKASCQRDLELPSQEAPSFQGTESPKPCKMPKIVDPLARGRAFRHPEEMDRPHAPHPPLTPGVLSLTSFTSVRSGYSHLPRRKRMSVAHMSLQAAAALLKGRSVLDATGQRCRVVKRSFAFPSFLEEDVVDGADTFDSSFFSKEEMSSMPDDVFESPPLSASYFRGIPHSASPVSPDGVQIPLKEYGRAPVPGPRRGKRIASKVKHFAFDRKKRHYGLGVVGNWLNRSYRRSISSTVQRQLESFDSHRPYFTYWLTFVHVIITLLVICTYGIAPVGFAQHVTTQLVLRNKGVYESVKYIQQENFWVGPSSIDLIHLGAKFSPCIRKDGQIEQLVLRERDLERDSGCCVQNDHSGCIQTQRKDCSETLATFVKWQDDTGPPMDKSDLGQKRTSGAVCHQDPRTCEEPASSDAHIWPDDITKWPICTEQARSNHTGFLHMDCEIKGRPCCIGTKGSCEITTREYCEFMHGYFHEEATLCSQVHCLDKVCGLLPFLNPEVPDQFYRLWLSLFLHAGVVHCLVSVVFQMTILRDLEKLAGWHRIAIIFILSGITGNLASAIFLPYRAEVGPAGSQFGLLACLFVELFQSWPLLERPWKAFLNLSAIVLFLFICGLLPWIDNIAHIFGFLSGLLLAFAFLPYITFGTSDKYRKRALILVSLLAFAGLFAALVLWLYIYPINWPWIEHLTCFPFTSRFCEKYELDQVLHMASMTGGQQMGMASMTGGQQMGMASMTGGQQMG
In words: FACS, MEF-DKO cells, 3 µg/ml. In outline: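 Binding read by flow cytometry after a PE goat anti-mouse IgG F(ab′)2 secondary (1:100, on ice, 1 h, dark). Before that, immortalized MEF-DKO lines carrying single-mutant hiR2-FL-T7 constructs were incubated 1 h on ice with 3 μg/ml antibody or FACS buffer alone.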
A general note: A flow cytometer gives signals particle by particle.

B1: antibody 50 (antibody, V domains shown)
VH: QVQLQQSGAELVRPGASVKVSCKASGYAFSNYLIEWVKQRPGQGLEWIGVINPGSGFTKYNEKFKGKATLTADKSSSTAYMQLSSLTSEDSAVYFCARGLYRAMDYWGQGTSVTVSS
VL: DIQMTQSPASQSASLGESVTITCLASQTIGTWLAWYQQKPGKSPQLLIYAAASLADGVPSRFSGGGSGTKFSFKISSLQAEDFVNYYCQQIYSTPYTFGGGTKLEIK
notes: mouse IgG, kappa light chain; also called clone #50; purified antibody 50
B1: the “loss of binding vs wild type” value is no less than 30%.

The values are drawn from patent US20240287172A1 (SCIRHOM, published 2024).
